Data on three molecules can be found in patent US20240287172A1 (SCIRHOM, published 2024).

The target in one test is T1, hiR1-FL-WT-T7 (human, UniProt Q96CC6 1-855).
T1 construct: on MEF-DKO cells
T1 sequence: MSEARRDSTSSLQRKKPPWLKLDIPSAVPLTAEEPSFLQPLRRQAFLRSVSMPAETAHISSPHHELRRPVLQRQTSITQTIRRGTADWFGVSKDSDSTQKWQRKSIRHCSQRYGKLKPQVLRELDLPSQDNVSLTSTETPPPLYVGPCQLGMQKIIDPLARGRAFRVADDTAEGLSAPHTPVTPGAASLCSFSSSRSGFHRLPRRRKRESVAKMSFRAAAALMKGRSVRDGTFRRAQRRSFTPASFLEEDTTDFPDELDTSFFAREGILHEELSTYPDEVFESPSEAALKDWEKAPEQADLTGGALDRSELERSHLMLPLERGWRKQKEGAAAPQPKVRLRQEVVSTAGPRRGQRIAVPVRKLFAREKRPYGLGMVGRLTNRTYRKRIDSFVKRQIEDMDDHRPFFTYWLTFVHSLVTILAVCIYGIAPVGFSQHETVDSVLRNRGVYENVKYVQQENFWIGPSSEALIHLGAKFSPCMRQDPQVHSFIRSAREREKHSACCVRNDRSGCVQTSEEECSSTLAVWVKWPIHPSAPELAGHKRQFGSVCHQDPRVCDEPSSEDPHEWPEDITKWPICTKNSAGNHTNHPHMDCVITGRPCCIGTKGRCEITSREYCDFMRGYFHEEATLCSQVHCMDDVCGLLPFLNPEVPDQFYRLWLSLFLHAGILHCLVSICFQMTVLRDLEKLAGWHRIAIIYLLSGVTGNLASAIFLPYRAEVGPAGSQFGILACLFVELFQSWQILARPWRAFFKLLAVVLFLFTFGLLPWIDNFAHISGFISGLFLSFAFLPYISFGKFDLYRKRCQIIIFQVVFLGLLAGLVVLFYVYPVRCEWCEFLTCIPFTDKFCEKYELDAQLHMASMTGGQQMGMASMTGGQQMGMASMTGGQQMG
The test can be described thus: FACS on MEF-DKO-hiR1-FL-WT-T7 cells.

In test [1] the target is T2, miR2-FL-WT-T7 (mouse, UniProt Q80WQ6 1-827).
T2 construct: on MEF-DKO cells
T2 sequence: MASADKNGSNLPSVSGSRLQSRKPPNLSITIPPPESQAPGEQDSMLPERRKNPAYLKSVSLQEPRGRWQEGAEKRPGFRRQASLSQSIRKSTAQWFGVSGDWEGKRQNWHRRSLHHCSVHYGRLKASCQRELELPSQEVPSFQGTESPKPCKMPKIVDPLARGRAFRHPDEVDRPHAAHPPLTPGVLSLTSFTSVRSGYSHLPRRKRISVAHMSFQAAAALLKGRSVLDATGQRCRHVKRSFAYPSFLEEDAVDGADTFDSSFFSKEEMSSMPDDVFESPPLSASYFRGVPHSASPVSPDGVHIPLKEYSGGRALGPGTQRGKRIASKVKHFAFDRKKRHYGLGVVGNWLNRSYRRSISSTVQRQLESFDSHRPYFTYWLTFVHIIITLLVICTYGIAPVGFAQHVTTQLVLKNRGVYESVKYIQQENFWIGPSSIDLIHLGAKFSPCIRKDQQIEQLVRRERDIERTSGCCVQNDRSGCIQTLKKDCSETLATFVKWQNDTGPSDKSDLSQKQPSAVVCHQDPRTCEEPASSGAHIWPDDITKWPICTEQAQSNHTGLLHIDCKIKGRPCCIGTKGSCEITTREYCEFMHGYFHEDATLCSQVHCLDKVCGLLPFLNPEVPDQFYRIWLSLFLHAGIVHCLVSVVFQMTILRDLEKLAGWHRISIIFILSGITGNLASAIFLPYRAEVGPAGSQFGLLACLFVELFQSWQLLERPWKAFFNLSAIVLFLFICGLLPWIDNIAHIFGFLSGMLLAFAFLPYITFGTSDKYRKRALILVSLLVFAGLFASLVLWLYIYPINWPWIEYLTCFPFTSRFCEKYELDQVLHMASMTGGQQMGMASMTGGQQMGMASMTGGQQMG
The test can be described thus: FACS, MEF-DKO-miR2-FL-WT-T7 cells. The protocol: In brief, immortalized MEF-DKO-EV control cells, MEF-DKO-hiR2-FL-WT-T7 cells and MEF-DKO-miR2-FL-WT-T7 cells were harvested with 10 mM EDTA in PBS, washed and resuspended in FACS buffer (PBS, 3% FBS, 0.05% sodium azide), and seeded in Nunc U-bottom 96-well plates (Thermo Fisher Scientific, USA) at approximately 3×10⁵ cells per well. To pellet cells and remove supernatants, the plates were centrifuged at 1,500 rpm and 4° C. for 3 minutes. For primary staining, cells were resuspended in 100 μl per well of either FACS buffer alone (controls), mouse monoclonal anti-T7 IgG (Merck Millipore, USA) at 3 μg/ml FACS buffer or the purified antibodies 3, 5, 16, 22, 34, 42, 43, 44, 48, and 50 of the invention also at 3 μg/ml FACS buffer and incubated on ice for 1 hour. Afterwards, plates were centrifuged at 1,500 rpm and 4° C. for 3 minutes and washed twice with 200 μl per well of FACS buffer. For secondary staining, cells were spun down and resuspended in 100 μl per well of PE-conjugated goat anti-mouse IgG F(ab′)2 detection fragment (Dianova, Germany) diluted 1:100 in FACS buffer. Protected from light, the cell suspensions were incubated on ice for 1 hour. […] Finally, cells were resuspended in 150 μl per well of FACS buffer and analyzed using a BD Accuri™ C6 Plus flow cytometer (Becton Dickinson, Germany).
On the technique in general: In flow cytometry, cells or beads pass a laser one at a time.

The target of test [2] is T2, miR2-FL-WT-T7. The test can be described thus: FACS on MEF-DKO-miR2-FL-WT-T7 cells.

B1: antibody 3 (antibody, V domains shown)
VH: QVTLKESGPGILQPSQTLSLTCSFSGFSLTTFAMGIGWVRQPSGKGLEWLAHIWWDGEKYNNPVLKSRLTISKDTSKNQVFLRIANVDTPDTATYYCARISSIYYIIDNWGQGTSVTVSS
VL: DIVLTQSPATLSVTPGHSVSLSCRASQSISNNLHWYQKKSHESPRLLIKYVSQSISGIPSRFSGSGSGTDFTLSINSVETEDFGMYFCQQSYNWPLTFGAGTKLELK
notes: mouse IgG, kappa light chain; also called clone #3; purified antibody 3
Regarding B1, the binding result with hiR1-FL-WT-T7 is given as “no binding (tested: 3 µg/ml)”.

B2: antibody 48 (antibody, V domains shown)
VH: QVQLQQSGTELVRPGTSVKVSCKASGYAFTNYLIEWVKQRPGQGLEWIGVINPGSGFTKYNEKFKGKATLTADKSSSTVYMHLSSLTSEDSAVYFCARGLYRAMDYWGQGTSVTVSS
VL: DIQMTQSPASQSASLGESVTITCLASQTIATWLAWYQQKPGKSPQLLIYGATTLADGVPSRFSGGGSGTKFSFKISSLQAEDFVSYYCQQLYSTPYTFGGGTKLEIK
notes: mouse IgG, kappa light chain; also called clone #48; purified antibody 48
As to B2, the binding result with miR2-FL-WT-T7 [1] is listed as “no binding (tested: 3 µg/ml)”.

B3: antibody 50 (antibody, V domains shown)
VH: QVQLQQSGAELVRPGASVKVSCKASGYAFSNYLIEWVKQRPGQGLEWIGVINPGSGFTKYNEKFKGKATLTADKSSSTAYMQLSSLTSEDSAVYFCARGLYRAMDYWGQGTSVTVSS
VL: DIQMTQSPASQSASLGESVTITCLASQTIGTWLAWYQQKPGKSPQLLIYAAASLADGVPSRFSGGGSGTKFSFKISSLQAEDFVNYYCQQIYSTPYTFGGGTKLEIK
notes: mouse IgG, kappa light chain; also called clone #50; purified antibody 50
For the molecule B3, the binding result in the test with miR2-FL-WT-T7 [2] was “no binding (tested: 3 µg/ml)”.
